From patent US9395368B2, “Methods, agents and peptides for inducing an immune response to matrix metalloproteinase-2 expressing tumors” (New York University, priority 2010, dated 2016)

Tested on: phosphorylated (Y701) STAT1
Test: Intracellular staining of phosphorylated (Y701) STAT1 in DCs
Assay type: cell-based, human
Conditions: DCs preincubated 1 h (5 μg/mL) prior to poly(I:C), 3 h
Procedure: Immature DCs were incubated with MMP-2 (0.5 μg/mL or 5 μg/mL) and poly(I:C)-matured 1 h later. IL-12 levels were measured 16 h later. (A) Results are represented as a percentage of IL-12p70 levels, measured by CBA, produced when DCs were incubated with poly(I:C) only (n=11). (B) For intracellular staining of IL-12p35 and IL-12p40 chains, Brefeldin A was added 4 h after poly(I:C) activation and cells were stained after an additional 12 h incubation. Numbers in the upper right quadrants are the percentages of each population for a representative donor (n=3). (C,D) Immature DCs were incubated with MMP-2 for 1 h (5 μg/mL) before poly(I:C) maturation. Intracellular staining of phosphorylated (Y701) STAT1 (P-STAT1) was performed 3 h later. A representative donor (C) and results for all 3 donors (D) are shown. […] (E) Immature DCs were incubated with MMP-2 and poly(I:C)-matured 1 h later. IFNβ levels were measured by ELISA 16 h later. Results are represented as a percentage of IFNβ levels produced when DCs were incubated with poly(I:C) only (n=9). […] IFNAR1 protein expression was detected the next day by Western blot analysis using a rabbit monoclonal antibody. […]
Intracellular staining T-bet and GATA-3 expression was measured on resting T cells. […] Cytokine production by T cells was also assessed by intracellular staining T cells were stimulated with 2 μM overlapping peptides. […]

B1: active MMP-2: Purified human MMP-2 (mixture of the proenzyme (50%) and the active form (50%)) purchased from Biomol (protein, listed as Homo sapiens)
chain: MEALMARGALTGPLRALCLLGCLLSHAAAAPSPIIKFPGDVAPKTDKELAVQYLNTFYGCPKESCNLFVLKDTLKKMQKFFGLPQTGDLDQNTIETMRKPRCGNPDVANYNFFPRKPKWDKNQITYRIIGYTPDLDPETVDDAFARAFQVWSDVTPLRFSRIHDGEADIMINFGRWEHGDGYPFDGKDGLLAHAFAPGTGVGGDSHFDDDELWTLGEGQVVRVKYGNADGEYCKFPFLFNGKEYNSCTDTGRSDGFLWCSTTYNFEKDGKYGFCPHEALFTMGGNAEGQPCKFPFRFQGTSYDSCTTEGRTDGYRWCGTTEDYDRDKKYGFCPETAMSTVGGNSEGAPCVFPFTFLGNKYESCTSAGRSDGKMWCATTANYDDDRKWGFCPDQGYSLFLVAAHEFGHAMGLEHSQDPGALMAPIYTYTKNFRLSQDDIKGIQELYGASPDIDLGTGPTPTLGPVTPEICKQDIVFDGIAQIRGEIFFFKDRFIWRTVTPRDKPMGPLLVATFWPELPEKIDAVYEAPQEEKAVFFAGNEYWIYSASTLERGYPKPLTSLGLPPDVQRVDAAFNWSKNKKTYIFAGDKFWRYNEVKKKMDPGFPKLIADAWNAIPDNLDAVVDLQGGGHSYFFKGAYYLKLENQSLKSVKFGSIKSDWLGC
For B1, the STAT1 phosphorylation was “decreased”.
